Where no end group is shown, it is not given here.
Experiments:
[1] = Recovery of spiked OXA and OXB during syringe and tube transfer in monkey CSF (nonspecific binding); type: physicochemical, cynomolgus monkey; details: nanoLC-HRMS; for recovery (%), spike recovery: spiked at final 100 pg/mL
Method: To overcome those problems, a mixture of 20 mM citric acid and 0.1% (w/v) Tween 80 (final concentrations) was added to the monkey CSF. […] Next, recovery during syringe transfer was assessed using the following procedure (Figure S2). […] Then, the spiked CSF was collected from the tube using a needle and a syringe. To the tube, 6 μL of 1M citric acid and 3 μL of 10% (w/v) Tween 80 were added, and the 300 μL of spiked CSF was returned from the syringe to the tube. The tube, the needle, and the syringe were rinsed by pipetting with CSF containing 20 mM citric acid and 0.1% (w/v) Tween 80 (final concentrations).
The samples were prepared in triplicate. […] The whole sample was removed from the tube using an injection needle (25G, Terumo Corporation, Tokyo, Japan) and a syringe (Terumo Corporation, Tokyo, Japan). Then, 1 M citric acid (6 μL) and 10% (w/v) Tween 80 (3 μL) were added to the empty tube to reach the final concentrations of 20 mM and 0.1%. The sample was returned from the syringe to the tube. The tube and syringe were then rinsed by pipetting five times with the CSF containing 20 mM citric acid and 0.1% (w/v) Tween 80. Finally, the whole sample was transferred to another tube. Recovery during tube transfer was assessed after repeating the procedure three times with monkey CSF containing 20 mM citric acid and 0.1% (w/v) Tween 80. The reference sample was prepared without syringe transfer, pipetting, or tube transfer. Recovery was calculated based on the quantitative values, which were the total values of endogenous and spiked orexins, in the testing samples to that in the reference sample.
CSF collection from cynomolgus monkey (A). Eppendorf Protein LoBind® tubes (1.5mL) were used for sample preparation. The syringe and needle used for CSF collection were washed by pipetting five times with collected CSF including anti- adsorptive additives to prevent non-specific adsorption to the instruments. Recovery test during syringe and tube transfer (B). Eppendorf Protein LoBind® tubes (1.5mL) were used for sample preparation. A tube containing neat CSF spiked with the standards for
The spiked CSF was collected from the tube using a needle and a syringe.
The tube, the needle, and the syringe were rinsed by pipetting five times w ith CSF containing citric acid/Tween 80.

[2] = Stability of OXA and OXB in real matrix (monkey CSF with 20 mM citric acid and 0.1% Tween 80); type: in vitro ADME, cynomolgus monkey
Method: Reproducibility was evaluated by intraday and interday assays of spiked quality control (QC) in the surrogate matrix (SQC) and in the real matrix (RQC). […] Carry-over was assessed by injecting blank samples immediately after a calibration standard at the upper limit of quantification.
Working IS solutions at 500 pg/mL were prepared by diluting the IS stock solutions with a mixture of 0.1% (w/v) bovine serum albumin and 20 mM citric acid and 0.1% (w/v) Tween 80 (final concentrations) in Dulbecco’s phosphate-buffered saline (PBS) as the surrogate matrix. The surrogate matrix was used as a blank matrix for the calibration curve, SQC samples for method qualification, and blank samples. […] RQC samples, which were monkey CSF containing 20 mM citric acid and 0.1% (w/v) Tween 80, were also prepared to confirm the parallel between the surrogate and real matrices. […] Stability was evaluated based on the difference from the initial sample. The processed sample stability was evaluated using three replicates of real matrix. […] The stored samples were reinjected with freshly processed calibration samples. The processed sample stability was evaluated to compare the back-calculated concentrations.

[3] = Processed sample stability in autosampler; type: physicochemical, cynomolgus monkey; details: autosampler at 10 °C
Method: Reproducibility was evaluated by intraday and interday assays of spiked quality control (QC) in the surrogate matrix (SQC) and in the real matrix (RQC). […] Carry-over was assessed by injecting blank samples immediately after a calibration standard at the upper limit of quantification. […] The preparation and storage of all CSF samples were conducted under the stable conditions described above.
Working IS solutions at 500 pg/mL were prepared by diluting the IS stock solutions with a mixture of 0.1% (w/v) bovine serum albumin and 20 mM citric acid and 0.1% (w/v) Tween 80 (final concentrations) in Dulbecco’s phosphate-buffered saline (PBS) as the surrogate matrix. The surrogate matrix was used as a blank matrix for the calibration curve, SQC samples for method qualification, and blank samples. […] RQC samples, which were monkey CSF containing 20 mM citric acid and 0.1% (w/v) Tween 80, were also prepared to confirm the parallel between the surrogate and real matrices. […] Stability was evaluated based on the difference from the initial sample. The processed sample stability was evaluated using three replicates of real matrix. […] The stored samples were reinjected with freshly processed calibration samples. The processed sample stability was evaluated to compare the back-calculated concentrations. […]

[4] = OXA and OXB in cisternal CSF collected with and without antiadsorptive additives; type: in vivo, cynomolgus monkey; details: cisternal CSF at 17:00, collected on different days; additives 20 mM citric acid and 0.1% (w/v) Tween 80; N = 5 for OXA, N = 4 for OXB
Method: LoBind tubes were used for preparing the nanoLC-HRMS samples. The IS working solution (60 μL) was mixed with a CSF, calibration curve, SQC, or RQC (50 μL) sample. Samples for the calibration curves were added with freshly prepared calibration standards (5 μL) corresponding to 2.5, 5, 20, 25, 50, 100, and 250 pg/mL, while DMSO (5 μL) was added to other samples. The samples were mixed with 10% (v/v) phosphoric acid (20 μL) and then centrifuged at 18,360g for 5 min at 4 °C. The supernatant (120 μL) was loaded into an HLB μElution plate and washed with 200 μL of methanol/water mixture (5:95, v/v). Orexins and ISs were eluted with 200 μL of acetonitrile/water/formic acid (80:20:0.1, v/v/v). After centrifugation at 4283g for 5 min at 4 °C, the supernatant (180 μL) was evaporated to dryness under a stream of nitrogen gas at room temperature. The precipitates were reconstituted in 40 μL of acetonitrile/water/trifluoroacetic acid (TFA) (4:96:0.01, v/v/v). After centrifugation at 12,000g for 10 min at 4 °C, the supernatant (5 μL) was used for nanoLC-HRMS.
NanoLC-HRMS was performed on an EASY-nLC 1200 system (Thermo Fisher Scientific, Inc., Waltham, MA) and a Q Exactive HF-X Orbitrap mass spectrometer (Thermo Fisher Scientific) equipped with an electrospray ionization interface. […]

Substance: Orexin-A (QPLPDCCRQKTCSCRLYELLHGAGNHAAGILTL; not fully specified; ends and bridges not checked; UniProt O43612 34-66, looked up) [OXA, 33-amino acid peptide with N-terminal pyroglutamylation, amidation of the C-terminal leucine, and two intramolecular disulfide bridges]
- recovery (%), tube transfer (3 times) ([1]; monkey CSF containing 20 mM citric acid/0.1% (w/v) Tween 80, three tube transfers, LoBind tubes, mean ± SD, N = 3): 105.2 ± 12.1%
- recovery (%), syringe and tube transfer ([1]; monkey CSF spiked with OXA and OXB (3 μL of 10 ng each/mL in DMSO + 297 μL CSF), LoBind tube, 25G needle and syringe, 20 mM citric acid/0.1% (w/v) Tween 80 added after syringe collection, rinsed by pipetting five times, vs reference sample, mean ± SD, N = 3): 100.6 ± 9.4%
- recovery (%), spike recovery ([1]; monkey CSF with 20 mM citric acid/0.1% (w/v) Tween 80, mean ± SD, N = 3): 107.1 ± 3.8%
- recovery ([1]; monkey CSF with addition of 0.01% (v/w) Tween 80 alone): 106.1%
- recovery (%), spike recovery ([1]; neat monkey CSF, no additives, mean ± SD, N = 3): 41.6 ± 3.9%
- percent difference in QC samples for stability evaluation from the initial sample ([2]; freeze–thaw (3 cycles, −80 °C), room temperature 2 h, −80 °C 60 days, real matrix QC in triplicate, within ±): ≤ 15%
- stability in real matrix, three freeze–thaw cycles ([2]; monkey CSF with 20 mM citric acid and 0.1% (w/v) Tween 80, unspiked and spiked (25 and 125 pg/mL) QC samples in triplicate, three freeze–thaw cycles at −80 °C, nanoLC-HRMS): stable
- stability in real matrix at room temperature ([2]; monkey CSF with 20 mM citric acid and 0.1% (w/v) Tween 80, unspiked and spiked QC samples in triplicate, room temperature for 2 h, nanoLC-HRMS): stable
- stability in real matrix at −80 °C ([2]; monkey CSF with 20 mM citric acid and 0.1% (w/v) Tween 80, unspiked and spiked QC samples in triplicate, −80 °C for 60 days, nanoLC-HRMS): stable
- time stable in autosampler (processed sample stability) ([3]; processed real-matrix samples, reconstituted in acetonitrile/water/TFA (4:96:0.01), three replicates): at least 48 h
- percent remaining after 48 h, difference from the initial analysis ([3]; processed samples, 48 h, three replicates of real matrix, within ±): ≤ 15%
- concentration ratios between samples without and with the antiadsorptive additives, mean [4]: 30.7%
